Broadly, the Kd is a measure of binding affinity in units of concentration.

What all share (assay): SPR; BIAcore 3000; ECM proteins immobilised on CM5 chips, endostatin injected at 0, 10, 50, 200 and 400 nM; 0.02 M Tris-HCl, 0.11 M NaCl, 0.05% P-20; 25 °C; flow 20 μl/min; global fit to the 1:1 Langmuir model; triplicates
Experiment [1] has as its target mouse laminin-1-nidogen-1 complex (mouse) (UniProt P19137).
The next experiment deals with mouse perlecan (mouse) (UniProt Q05793).
Experiment [2] addresses recombinant microfibrillar component fibulin-1 (UniProt Q08879).
Sequence of UniProt Q08879 (Q08879 30-705): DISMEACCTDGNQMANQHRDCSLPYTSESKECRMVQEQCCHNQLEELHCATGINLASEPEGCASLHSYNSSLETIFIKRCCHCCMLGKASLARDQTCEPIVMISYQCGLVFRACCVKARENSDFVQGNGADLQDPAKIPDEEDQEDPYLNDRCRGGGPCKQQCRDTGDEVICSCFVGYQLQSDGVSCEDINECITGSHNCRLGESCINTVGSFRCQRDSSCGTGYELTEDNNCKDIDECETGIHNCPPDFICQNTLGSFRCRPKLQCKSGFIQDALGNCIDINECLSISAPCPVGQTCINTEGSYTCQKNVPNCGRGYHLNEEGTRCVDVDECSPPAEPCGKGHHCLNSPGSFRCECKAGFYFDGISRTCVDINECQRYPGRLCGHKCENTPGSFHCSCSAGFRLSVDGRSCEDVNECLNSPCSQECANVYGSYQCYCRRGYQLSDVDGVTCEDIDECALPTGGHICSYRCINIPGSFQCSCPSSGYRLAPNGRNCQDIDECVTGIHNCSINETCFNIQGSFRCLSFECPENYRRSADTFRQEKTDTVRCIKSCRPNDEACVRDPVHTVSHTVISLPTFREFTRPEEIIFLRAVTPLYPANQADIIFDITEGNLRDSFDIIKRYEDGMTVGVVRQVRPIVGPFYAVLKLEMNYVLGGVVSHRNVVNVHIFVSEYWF

Sequence of UniProt Q05793 (Q05793 22-3707): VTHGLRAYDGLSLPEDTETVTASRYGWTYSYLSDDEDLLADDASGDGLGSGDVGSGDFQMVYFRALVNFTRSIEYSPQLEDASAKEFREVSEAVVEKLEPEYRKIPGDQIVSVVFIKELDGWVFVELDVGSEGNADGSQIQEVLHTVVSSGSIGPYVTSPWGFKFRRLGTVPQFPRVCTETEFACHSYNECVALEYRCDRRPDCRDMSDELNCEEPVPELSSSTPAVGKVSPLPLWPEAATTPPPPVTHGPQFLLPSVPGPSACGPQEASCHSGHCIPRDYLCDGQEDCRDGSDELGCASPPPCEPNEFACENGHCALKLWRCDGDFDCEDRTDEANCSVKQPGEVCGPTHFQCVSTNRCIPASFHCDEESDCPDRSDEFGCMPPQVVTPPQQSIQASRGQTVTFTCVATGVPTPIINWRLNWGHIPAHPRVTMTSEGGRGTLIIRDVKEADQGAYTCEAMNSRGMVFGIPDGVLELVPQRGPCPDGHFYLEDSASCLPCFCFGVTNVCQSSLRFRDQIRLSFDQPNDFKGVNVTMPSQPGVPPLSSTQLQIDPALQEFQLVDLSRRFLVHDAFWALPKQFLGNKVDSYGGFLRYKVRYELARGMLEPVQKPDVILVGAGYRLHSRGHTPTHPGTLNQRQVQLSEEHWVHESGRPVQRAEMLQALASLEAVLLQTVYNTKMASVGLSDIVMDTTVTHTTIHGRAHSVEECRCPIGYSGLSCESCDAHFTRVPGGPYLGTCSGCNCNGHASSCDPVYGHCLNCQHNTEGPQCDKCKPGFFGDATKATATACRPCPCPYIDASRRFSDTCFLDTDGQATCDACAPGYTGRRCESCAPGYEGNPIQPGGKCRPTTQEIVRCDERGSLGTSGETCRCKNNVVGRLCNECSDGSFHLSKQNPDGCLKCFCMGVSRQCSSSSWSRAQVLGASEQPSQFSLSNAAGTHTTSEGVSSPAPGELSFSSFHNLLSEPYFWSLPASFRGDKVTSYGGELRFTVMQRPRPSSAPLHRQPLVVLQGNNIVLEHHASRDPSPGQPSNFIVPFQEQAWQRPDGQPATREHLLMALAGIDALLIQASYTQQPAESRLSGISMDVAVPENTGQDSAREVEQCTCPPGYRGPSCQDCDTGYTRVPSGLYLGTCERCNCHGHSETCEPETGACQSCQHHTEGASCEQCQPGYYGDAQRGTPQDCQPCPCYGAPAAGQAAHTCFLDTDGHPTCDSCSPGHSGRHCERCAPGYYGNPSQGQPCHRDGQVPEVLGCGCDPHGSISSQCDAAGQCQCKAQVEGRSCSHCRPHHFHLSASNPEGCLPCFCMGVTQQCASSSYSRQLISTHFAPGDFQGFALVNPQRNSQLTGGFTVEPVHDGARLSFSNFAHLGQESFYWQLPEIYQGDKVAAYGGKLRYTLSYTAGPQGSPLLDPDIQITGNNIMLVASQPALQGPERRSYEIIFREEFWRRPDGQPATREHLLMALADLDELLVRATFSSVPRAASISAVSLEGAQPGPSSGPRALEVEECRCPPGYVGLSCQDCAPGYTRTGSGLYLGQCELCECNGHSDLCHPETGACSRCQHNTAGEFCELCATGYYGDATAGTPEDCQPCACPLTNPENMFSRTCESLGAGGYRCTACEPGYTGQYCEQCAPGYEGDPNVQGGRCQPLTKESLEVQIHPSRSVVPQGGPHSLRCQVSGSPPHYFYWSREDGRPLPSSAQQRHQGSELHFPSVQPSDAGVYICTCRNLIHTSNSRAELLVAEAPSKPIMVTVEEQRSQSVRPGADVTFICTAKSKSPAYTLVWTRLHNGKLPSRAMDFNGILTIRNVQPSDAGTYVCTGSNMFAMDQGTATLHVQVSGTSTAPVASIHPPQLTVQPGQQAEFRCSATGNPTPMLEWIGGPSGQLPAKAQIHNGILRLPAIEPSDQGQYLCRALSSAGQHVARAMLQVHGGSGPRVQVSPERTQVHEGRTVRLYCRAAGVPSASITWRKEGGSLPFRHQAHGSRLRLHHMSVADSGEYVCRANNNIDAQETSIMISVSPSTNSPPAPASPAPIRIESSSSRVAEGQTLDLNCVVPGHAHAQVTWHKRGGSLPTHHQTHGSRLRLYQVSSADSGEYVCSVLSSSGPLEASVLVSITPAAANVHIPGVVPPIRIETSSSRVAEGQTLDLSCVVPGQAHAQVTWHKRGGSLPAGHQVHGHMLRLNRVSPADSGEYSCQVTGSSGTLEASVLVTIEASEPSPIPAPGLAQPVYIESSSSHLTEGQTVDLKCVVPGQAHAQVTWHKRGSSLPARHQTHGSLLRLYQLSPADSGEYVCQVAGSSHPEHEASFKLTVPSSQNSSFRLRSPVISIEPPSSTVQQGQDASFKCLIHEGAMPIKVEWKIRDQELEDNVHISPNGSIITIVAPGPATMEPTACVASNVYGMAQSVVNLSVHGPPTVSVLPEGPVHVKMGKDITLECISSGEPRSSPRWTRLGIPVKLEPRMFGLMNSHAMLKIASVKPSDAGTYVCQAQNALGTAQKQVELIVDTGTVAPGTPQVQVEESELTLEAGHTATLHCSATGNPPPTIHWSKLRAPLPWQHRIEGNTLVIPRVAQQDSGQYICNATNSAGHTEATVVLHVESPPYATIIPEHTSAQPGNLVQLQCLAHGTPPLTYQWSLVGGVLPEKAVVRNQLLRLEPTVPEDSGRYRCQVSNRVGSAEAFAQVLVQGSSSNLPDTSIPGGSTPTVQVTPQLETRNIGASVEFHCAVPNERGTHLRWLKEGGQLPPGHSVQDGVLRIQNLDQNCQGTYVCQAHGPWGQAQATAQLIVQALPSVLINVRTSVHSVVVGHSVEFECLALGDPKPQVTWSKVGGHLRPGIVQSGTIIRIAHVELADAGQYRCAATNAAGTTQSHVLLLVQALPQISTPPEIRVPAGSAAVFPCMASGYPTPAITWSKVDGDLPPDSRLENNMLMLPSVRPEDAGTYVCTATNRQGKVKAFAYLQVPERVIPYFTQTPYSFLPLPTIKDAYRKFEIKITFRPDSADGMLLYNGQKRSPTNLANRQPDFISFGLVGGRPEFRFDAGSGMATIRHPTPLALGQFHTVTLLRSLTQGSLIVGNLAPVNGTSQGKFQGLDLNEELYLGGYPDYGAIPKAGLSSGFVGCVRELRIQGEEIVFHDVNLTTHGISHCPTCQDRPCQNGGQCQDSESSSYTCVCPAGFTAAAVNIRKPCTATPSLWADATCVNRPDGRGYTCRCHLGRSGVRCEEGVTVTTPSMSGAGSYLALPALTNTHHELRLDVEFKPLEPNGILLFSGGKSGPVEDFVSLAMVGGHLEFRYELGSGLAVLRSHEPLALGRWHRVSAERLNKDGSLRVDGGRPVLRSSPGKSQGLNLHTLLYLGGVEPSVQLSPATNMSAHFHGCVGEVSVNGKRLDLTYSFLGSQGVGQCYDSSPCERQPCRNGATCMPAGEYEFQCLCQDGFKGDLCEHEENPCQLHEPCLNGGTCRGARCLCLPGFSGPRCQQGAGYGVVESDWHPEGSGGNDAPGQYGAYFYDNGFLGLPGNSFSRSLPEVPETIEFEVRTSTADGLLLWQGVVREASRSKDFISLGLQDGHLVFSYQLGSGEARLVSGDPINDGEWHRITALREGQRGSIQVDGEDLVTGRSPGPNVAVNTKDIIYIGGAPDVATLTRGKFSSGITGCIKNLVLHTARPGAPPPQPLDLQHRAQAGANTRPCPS

As for “p.A1381T endostatin (mutated endostatin domain, c.3601G>A) (domain or fragment)”, the equilibrium dissociation constant (Kd) is 6.17 nM in experiment [1], 5.19 nM in the experiment with mouse perlecan (mouse) and 6.95 nM in experiment [2].

“wild type human endostatin (endostatin domain of type XVIII collagen) (domain or fragment)”: the dissociation constant (Kd) in experiment [1] worked out at 3.48 nM; with mouse perlecan (mouse), 5.53 nM; in experiment [2], 3.1 nM.
